Patent publication US20240400689A1 (ANTENGENE BIOLOGICS, published 2024)
Numbering of substitutions follows the chain as printed. Read-outs that look alike come from different tables or passages of the source.

Legend:
[1] = molecular target: T1, human CD276 protein (human, UniProt Q5ZPR3 29-534); assay: FACS titration on SKOV3 cells (MFI against Conc. (nM)); unit taken from the concentration axis
T1 construct: whole, on cells; for SKOV3 and the other cancer lines the protein is the cells' own; also called B7-H3; B7H3
T1 sequence (looked up): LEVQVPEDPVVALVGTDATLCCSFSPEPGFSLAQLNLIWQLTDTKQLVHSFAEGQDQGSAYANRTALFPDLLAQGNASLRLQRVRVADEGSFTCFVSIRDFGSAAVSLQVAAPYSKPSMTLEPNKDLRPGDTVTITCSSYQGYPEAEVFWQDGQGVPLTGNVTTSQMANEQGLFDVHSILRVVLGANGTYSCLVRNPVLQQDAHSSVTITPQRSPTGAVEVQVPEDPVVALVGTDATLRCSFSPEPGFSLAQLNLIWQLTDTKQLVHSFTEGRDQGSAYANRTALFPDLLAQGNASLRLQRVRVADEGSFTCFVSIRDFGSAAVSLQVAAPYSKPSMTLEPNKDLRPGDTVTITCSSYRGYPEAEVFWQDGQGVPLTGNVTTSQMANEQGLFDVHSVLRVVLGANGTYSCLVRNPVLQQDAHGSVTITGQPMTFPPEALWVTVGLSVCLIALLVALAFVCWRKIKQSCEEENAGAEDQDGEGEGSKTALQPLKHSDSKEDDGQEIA
From the text: Sequences of 31 mouse antibodies from Table 5 were selected to generate and produce human IgG1 chimeric antibodies. The binding affinity of these antibodies and bench mark antibody, Enoblituzumab (see U.S. Pat. No. 8,802,091, MGA271, specifically with a construct designated as hBRCA84D-2) and MGC018 (an antibody-drug-conjugate, in which the mAb MGA017 (human IgG1) is conjugated via a cleavable linker to the prodrug seco-DUocarmycin hydroxyBenzamide Azaindole (DUBA), an alkylating agent that can damage DNA in both dividing and non-dividing cells, thereby causing cell death) with human patient derived ovarian cancer cell line, SKOV3, was determined by FACS analysis.
1. Digested cells using Trypsin (1×); Centrifuged the harvested cells at 300 g for 3 min and discarding the supernatant. […] 2. Washed the cells 2 times with FACS buffer by centrifuging at 300 g for 3 min and discarding the supernatant. [0445] 3. […] Kept the cells in dark for FACS analysis.

[2] = molecular target: T2, HUMAN B7H3 (Biacore analyte) (human, UniProt Q5ZPR3 29-461, limits assumed); assay: SPR, Biacore 8K, antibody captured, B7H3 as analyte, 1:1 binding
T2 construct: also called hB7H3
T2 sequence (looked up): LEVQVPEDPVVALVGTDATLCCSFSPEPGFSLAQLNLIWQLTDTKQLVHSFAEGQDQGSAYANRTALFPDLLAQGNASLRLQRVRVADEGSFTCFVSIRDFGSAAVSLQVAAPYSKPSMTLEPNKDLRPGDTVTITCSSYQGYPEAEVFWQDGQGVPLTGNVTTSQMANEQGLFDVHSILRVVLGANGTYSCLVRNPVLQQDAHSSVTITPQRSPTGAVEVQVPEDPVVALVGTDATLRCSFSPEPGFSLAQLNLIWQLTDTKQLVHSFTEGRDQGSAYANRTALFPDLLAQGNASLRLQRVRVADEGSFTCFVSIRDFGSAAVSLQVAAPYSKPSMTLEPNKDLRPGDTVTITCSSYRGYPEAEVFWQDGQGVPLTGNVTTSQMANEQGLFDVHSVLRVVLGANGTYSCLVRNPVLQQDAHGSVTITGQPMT

[3] = molecular target: T1, human CD276 protein; assay: cell-based or functional assay
[4] = molecular target: T1, human CD276 protein; assay: FACS on SKOV3 cells
Outline: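 Human IgG1 chimeric antibodies were tested for binding to trypsin-detached SKOV3 ovarian cancer cells by flow cytometry, with cells washed in FACS buffer and kept in the dark before acquisition. Titration read-out was MFI plotted against antibody concentration (nM).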

[5] = molecular target: T1, human CD276 protein; assay: cell-based or functional assay; remark: listed apart in the source
[6] = molecular target: T2, HUMAN B7H3 (Biacore analyte); assay: SPR, Biacore 8K, antibody captured, B7H3 as analyte, 1:1 binding; remark: listed apart in the source
[7] = molecular target: T1, human CD276 protein; assay: cell-based or functional assay; remark: listed apart in the source
[8] = molecular target: T1, human CD276 protein; assay: FACS titration on SKOV3 cells (MFI against Conc. (nM)); unit taken from the concentration axis; remark: listed apart in the source

B1: 10-G6-C4-B2 (human IgG1 chimeric antibody) (antibody, V domains shown)
VH: EVQLVESGGGLVQPGGSLRLSCATSGFTLSDYYMSWVRQPPGKAPEWLGFMRNKANGYTTEYSASVRGRFTISRDTSQSIIYLQMNTLRAEDGATYYCVRDRDGRPFAYWGQGTLVTVSA
VL: DIVMTQSPSSLTVTAGEKVTMSCKSSQSLLNSINQKNFLTWYQQKPGQPPKLLIYWASTRESGVPDRFTGSGSGTDFTLTISSVQAEDLAIYYCQNDYTYPLTFGTGTKLELK
notes: human IgG1 chimeric antibody of the mouse clone
- EC50 [1]: 2.33 nM
- Kd [2]: 0.785 nM
- koff [2]: 0.000198 s⁻¹
- kon [2]: 252000 M⁻¹ s⁻¹
- IC50 of indirect ADC cytotoxicity on SKOV3 [3]: 0.008 nM
- EC50 [4]: 0.822 µg/mL
- MFI (Max) [4]: 5640
- EC50 of antibody induced CDC effect [5]: 2.74 nM
- Top cytotoxicity (%), CDC [5]: 93.5%
- Kd [6]: 0.415 nM
- koff [6]: 8.97e-05 s⁻¹
- kon [6]: 216000 M⁻¹ s⁻¹
- EC50 of antibody induced ADCC effect on SKOV3 [7]: 0.237 µg/mL

B2: mVH5-mVL4-10 (antibody, V domains shown)
VH: B1 VH with G57A, D103E
VL: B1 VL with S32A
- EC50 [1]: 2.76 nM

B3: 30-C7-C11-D4 (human IgG1 chimeric antibody) (antibody, V domains shown)
VH: EVQLVESGPGLVKPSQSLSLTCTVTGYSITSDYAWNWIRQFPGNKLEWMGYISHSGSTSYNPSLKSRISITRDTSKNQFFLQLNSVTTEDTATYYCARSLGRRWYFDVWGAGTTVTVSS
VL: DIVMTQSPSSLAMSVGQKVTLSCKSSQSLLNSSTQKNYLAWYQQKPGQSPKLLVYFASTRDSGVPDRFIGSGSGTEFTLTISSVQAEDLADYFCQQHYIIPFTFGAGTKLEIK
notes: as for B1
- EC50 [4]: 0.282 µg/mL
- MFI (Max) [4]: 4270
- EC50 [8]: 7.98 nM
- EC50 of antibody induced CDC effect [5]: 3.21 nM
- Top cytotoxicity (%), CDC [5]: 60.3%
- EC50 of antibody induced ADCC effect on SKOV3 [7]: 0.0327 µg/mL

B4: hVH2-hVL1-10 (antibody, V domains shown)
VH: EVQLVESGGGLVQPGGSLRLSCATSGFTLSDYYMSWVRQAPGKGLEWVSFMRNKANGYTTEYSASVRGRFTISRDTSKSTIYLQMNSLRAEDTAVYYCVRDRDGRPFAYWGQGTLVTVSS
VL: DIVMTQSPDSLAVSLGERATINCKSSQSLLNSINQKNFLTWYQQKPGQPPKLLIYWASTRESGVPDRFSGSGSGTDFTLTISSLQAEDLAVYYCQNDYTYPLTFGQGTKLEIK
- EC50 [1]: 1.92 nM

B5: hVH3-hVL3-10 (antibody, V domains shown)
VH: B4 VH with S49G, T80S, R89K, A90T
VL: DIQMTQSPSSLSASVGDRVTITCKSSQSLLNSINQKNFLTWYQQKPGKAPKLLIYWASTRESGVPSRFSGSGSGTDFTLTISSLQPEDLATYYCQNDYTYPLTFGQGTKLEIK
- EC50 [1]: 2.75 nM

B6: hVH4-hVL2-10 (antibody, V domains shown)
VH: B4 VH with V12I, A40P
VL: DIVMTQSPLSLPVTPGEPASISCKSSQSLLNSINQKNFLTWYLQKPGQSPQLLIYWASTRESGVPDRFSGSGSGTDFTLKISRVEAEDLGVYYCQNDYTYPLTFGQGTKLEIK
- EC50 [1]: 4.43 nM

B7: hVH4-hVL1-10 (antibody, V domains shown)
VH: B4 VH with V12I, A40P
VL: B4 VL
- EC50 [1]: 1.9 nM

B8: hVH5-hVL3-10 (antibody, V domains shown)
VH: B4 VH with G16R, A23T, S49G, T80I, R89K, A90T
VL: B5 VL
- EC50 [1]: 2.98 nM

B9: hVH5-hVL1-10 (antibody, V domains shown)
VH: B4 VH with G16R, A23T, S49G, T80I, R89K, A90T
VL: B4 VL
- EC50 [1]: 2.63 nM
